Assay results reported in patent publication US20160130340A1 (ALDERBIO, published 2016).
One block for each binder: values may come before it.

Experiments:
[1] = biological target: T1, Human IL-6 (human, UniProt P05231 30-212); assay: Octet bio-layer interferometry; antibody captured on anti-human IgG Fc sensor, then IL-6, then soluble IL-6R1, then gp130 in the presence of IL-6R1; ligand whose binding is slowed: gp130
T1 construct: also called huIL-6; Interleukin-6
Experimental: (§1) To determine the antibody mechanism of action, mechanistic studies were performed using bio-layer interferometry with an Octet QK instrument (ForteBio; Menlo Park, Calif.). Studies were performed in two different configurations. […] Binding is monitored as an increase in signal.
(§2) In the second orientation, the antibody was bound to a biosensor coated with an anti-human IgG1 Fc-specific reagent (ForteBio part number 18-5001). […] All studies were performed in a 200 μL final volume, at 30° C. and 1000 rpm. For these studies, all proteins were diluted using ForteBio's sample diluent buffer (part number 18-5028).

[2] = biological target: T2, Mouse IL-6 (mouse, UniProt P08505 25-211); assay: cell-based or functional assay
T2 sequence (looked up): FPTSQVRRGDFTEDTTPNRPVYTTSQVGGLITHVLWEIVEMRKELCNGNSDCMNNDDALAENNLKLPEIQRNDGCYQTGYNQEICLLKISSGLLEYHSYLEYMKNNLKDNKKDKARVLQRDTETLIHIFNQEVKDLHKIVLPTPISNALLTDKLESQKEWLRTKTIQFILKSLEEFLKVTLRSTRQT

[3] = biological target: T3, Cynomolgus monkey IL-6 (cynomolgus monkey, UniProt P79341 28-212, limits assumed); assay: cell-based or functional assay
T3 sequence (looked up): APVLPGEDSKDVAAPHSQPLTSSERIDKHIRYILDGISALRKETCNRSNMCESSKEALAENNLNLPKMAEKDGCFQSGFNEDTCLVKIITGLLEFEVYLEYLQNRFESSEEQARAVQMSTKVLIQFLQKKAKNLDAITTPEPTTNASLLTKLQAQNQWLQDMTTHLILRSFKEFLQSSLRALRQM

[4] = biological target: T1, Human IL-6; assay: cell-based or functional assay
[5] = biological target: T4, Rat IL-6 (rat, UniProt P20607 25-211); assay: cell-based or functional assay
T4 sequence (looked up): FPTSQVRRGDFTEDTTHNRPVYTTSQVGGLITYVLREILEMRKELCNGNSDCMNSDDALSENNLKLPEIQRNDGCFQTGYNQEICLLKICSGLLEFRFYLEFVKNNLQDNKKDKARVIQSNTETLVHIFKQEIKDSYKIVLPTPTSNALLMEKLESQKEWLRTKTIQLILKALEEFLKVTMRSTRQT

[6] = biological target: T2, Mouse IL-6; assay: surface plasmon resonance, 25 C, averaged constants
[7] = biological target: T3, Cynomolgus monkey IL-6; assay: as above
[8] = biological target: T1, Human IL-6; assay: as above
[9] = biological target: T4, Rat IL-6; assay: as above
[10] = biological target: T1, Human IL-6; assay: Octet bio-layer interferometry; antibody captured on anti-human IgG Fc sensor, then IL-6, then soluble IL-6R1, then gp130 in the presence of IL-6R1; blocked ligands: IL-6R1 and gp130
Experimental: as §1, §2

[11] = biological target: T1, Human IL-6; assay: Octet bio-layer interferometry; biotinylated IL-6 on streptavidin sensor, then antibody or buffer, then soluble IL-6R1, then gp130 in the presence of IL-6R1; blocked ligand: gp130
Experimental: as §1
The IL-6 bound to the sensor was then incubated either with the antibody in question or diluent solution alone.

B1: Ab2 (antibody, V domains shown)
VH: QEQLKESGGRLVTPGTPLTLTCTASGFSLNDHAMGWVRQAPGKGLEYIGFINSGGSARYASWAEGRFTISRTSTTVDLKMTSLTTEDTATYFCVRGGAVWSIHSFDPWGPGTLVTVSS
VL: AYDMTQTPASVEVAVGGTVTINCQASETIYSWLSWYQQKPGQPPKLLIYQASDLASGVPSRFSGSGAGTEYTLTISGVQCDDAATYYCQQGYSGSNVDNVFGGGTEVVVKR
notes: The entry may carry a leader
- binding result [1]: binds

B2: Ab1 (antibody, human IgG1, kappa, N297A, V domains shown)
VH: EVQLVESGGGLVQPGGSLRLSCAASGFSLSNYYVTWVRQAPGKGLEWVGIIYGSDETAYATSAIGRFTISRDNSKNTLYLQMNSLRAEDTAVYYCARDDSSDWDAKFNLWGQGTLVTVSS
VL: AIQMTQSPSSLSASVGDRVTITCQASQSINNELSWYQQKPGKAPKLLIYRASTLASGVPSRFSGSGSGTDFTLTISSLQPDDFATYYCQQGYSLRNIDNAFGGGTKVEIKR
notes: Humanized from a rabbit antibody, IgG1 kappa, aglycosylated, produced in Pichia pastoris; also called clazakizumab; ALD518
- IC50 (pM), T1165 cell proliferation stimulated by the species' IL-6 [2]: 1840 pM
- IC50 (pM), T1165 cell proliferation stimulated by the species' IL-6 [3]: 12 pM
- IC50 (pM), T1165 cell proliferation stimulated by the species' IL-6 [4]: 13 pM
- IC50 (pM), T1165 cell proliferation stimulated by the species' IL-6 [5]: 2060 pM
- Kd [6]: 400 pM
- koff [6]: 0.0004 s⁻¹
- kon [6]: 1.1e+06 M⁻¹ s⁻¹
- Kd [7]: 31 pM
- koff [7]: 3e-06 s⁻¹
- kon [7]: 96000 M⁻¹ s⁻¹
- Kd [8]: 4 pM
- koff [8]: 5e-07 s⁻¹
- kon [8]: 160000 M⁻¹ s⁻¹
- Kd [9]: 1400 pM
- koff [9]: 0.0022 s⁻¹
- kon [9]: 1.6e+06 M⁻¹ s⁻¹

B3: Ab6 (antibody, V domains shown)
VH: QSVEESGGRLVTPGTPLTLTCTVSGIDLSDYAMSWVRQAPGKGLEWIGIIYAGSGSTWYASWAKGRFTISKTSTTVDLKITSPTTEDTATYFCARDGYDDYGDFDRLDLWGPGTLVTVSS
VL: AAVLTQTPSPVSVPVGGTVTIKCQSSQSVYNNFLSWYQQKPGQPPKLLIYQASKLASGVPDRFSGSGSGTQFTLTISGVQCDDAATYYCLGGYDDDADNAFGGGTEVVVKR
notes: Captured on an anti-human IgG1 Fc sensor
- binding result [10]: binds

Continued, values first:

- binding result [11]: binds
B4: Ab4 (antibody, V domains shown)
VH: QEQLKESGGGLVTPGGTLTLTCTASGFSLNAYYMNWVRQAPGKGLEWIGFITLNNNVAYANWAKGRFTFSKTSTTVDLKMTSPTPEDTATYFCARSRGWGAMGRLDLWGHGTLVTVSS
VL: DPVLTQTPSPVSAPVGGTVSISCQASQSVYENNYLSWFQQKPGQPPKLLIYGASTLDSGVPSRFKGSGSGTQFTLTITDVQCDDAATYYCAGVYDDDSDDAFGGGTEVVVKR
notes: as for B3

- binding result [11]: binds
B5: Ab3 (antibody, V domains shown)
VH: QSLEESGGRLVTPGTPLTLTCTASGFSLSVYYMNWVRQAPGKGLEWIGFITMSDNINYASWAKGRFTISKTSTTVDLKMTSPTTEDTATYFCARSRGWGTMGRLDLWGPGTLVTVSS
VL: AAVLTQTPSPVSAAVGGTVSISCQASQSVYDNNYLSWFQQKPGQPPKLLIYGASTLASGVPSRFVGSGSGTQFTLTITDVQCDDAATYYCAGVYDDDSDNAFGGGTEVVVKR
notes: as for B3
